The record followed here is patent US20100291114A1 (published 2010).

In assay [1] the target is human FGFR3 (isoform and construct not stated) (human) (UniProt P22607). Kind of assay: Scatchard analysis, radioiodinated antibody cell binding; RT112 cells.
Assay [2] shares this target. The assay can be described thus: Scatchard analysis, radioiodinated antibody cell binding; KMS11 cells.
Assay [3] shares this target. The assay can be described thus: Scatchard analysis, radioiodinated antibody cell binding; UMUC-14 cells.
Assay [4] has the same target. The assay can be described thus: Scatchard analysis, radioiodinated antibody cell binding; OPM2 cells.
Assay [5] concerns the target T1, His-tagged IgD2-D3 of human FGFR3-IIIc (human, UniProt P22607 143-372).
T1 construct: domain: IgD2-D3; also called FGFR3-IIIC-His protein; IIIc-His protein; not shown: His tag
T1 sequence: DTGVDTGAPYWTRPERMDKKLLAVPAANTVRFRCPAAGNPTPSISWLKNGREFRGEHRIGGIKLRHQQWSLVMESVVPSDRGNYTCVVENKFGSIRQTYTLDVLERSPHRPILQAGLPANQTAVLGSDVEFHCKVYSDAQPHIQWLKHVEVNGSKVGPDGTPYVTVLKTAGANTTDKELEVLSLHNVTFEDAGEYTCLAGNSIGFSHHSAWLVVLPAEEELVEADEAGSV
Kind of assay: BIAcore SPR; antibody on CM5 chip, FGFR3-His protein injected. Background: In SPR one partner is held on a chip, and binding of the other changes the refractive index at the surface.

Assay [6] addresses T2, His-tagged IgD2-D3 of human FGFR3-IIIb (human, UniProt P22607-2 143-374, limits assumed).
T2 construct: domain: IgD2-D3; also called FGFR3-IIIb-His protein; Human FGFR3 ECD IIIb; not shown: His tag
T2 sequence (looked up): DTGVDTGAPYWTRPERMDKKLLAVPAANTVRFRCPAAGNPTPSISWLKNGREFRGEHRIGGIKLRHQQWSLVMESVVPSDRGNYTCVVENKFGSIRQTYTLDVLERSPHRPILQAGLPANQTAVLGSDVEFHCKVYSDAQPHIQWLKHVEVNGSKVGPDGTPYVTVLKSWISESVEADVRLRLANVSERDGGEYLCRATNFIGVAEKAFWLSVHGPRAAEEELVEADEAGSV
The description is as above.

Assay [7] addresses human FGFR3 (isoform and construct not stated) (human) (UniProt P22607). Kind of assay: cell-based or functional assay.
Assay [8] addresses T3, human FGFR3-IIIc ECD-human Fc chimeric protein (human, UniProt P22607 23-375).
T3 construct: extracellular domain; Made in CHO cells, purified on protein A; also called FGFR3-Fc chimeric protein; not shown: human Fc
T3 sequence (looked up): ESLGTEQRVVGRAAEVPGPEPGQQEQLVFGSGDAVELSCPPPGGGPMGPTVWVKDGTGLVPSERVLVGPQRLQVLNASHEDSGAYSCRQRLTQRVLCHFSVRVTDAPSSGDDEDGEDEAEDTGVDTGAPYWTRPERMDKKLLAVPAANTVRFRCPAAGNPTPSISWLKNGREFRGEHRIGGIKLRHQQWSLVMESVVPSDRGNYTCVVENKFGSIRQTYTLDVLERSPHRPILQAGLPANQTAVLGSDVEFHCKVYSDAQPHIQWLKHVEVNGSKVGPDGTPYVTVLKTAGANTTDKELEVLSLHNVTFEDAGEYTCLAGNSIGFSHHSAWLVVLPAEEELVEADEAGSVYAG
Kind of assay: competition ELISA; FGFR3-IIIc-Fc captured, antibody titrated, then FGF9 and heparin; competitor FGF9. In general terms: An ELISA detects its analyte on a solid surface through an enzyme-linked reagent.

Assay [9] has as its target T3, human FGFR3-IIIc ECD-human Fc chimeric …. Kind of assay: competition ELISA; FGFR3-IIIc-Fc captured, antibody titrated, then FGF1 and heparin; competitor FGF1.
In assay [10] the target is T1, His-tagged IgD2-D3 of human FGFR3-IIIc. The assay can be described thus: BIAcore SPR; R3 Ab on the chip, FGFR3-IIIc-His protein injected, 25 C.

Numbering of substitutions follows the chain as printed.

The Kd is the free concentration of one partner at which half of the binding sites on the other are occupied at equilibrium, for simple one-to-one binding. Read a high Kd as weaker binding. As to R3Mab, the Kd in [1] came out at 0.16 nM; in [2], 0.35 nM; in assay [3], 0.34 nM; in assay [4], 0.64 nM.

B1: anti-FGFR3 antibody clone 184.6.1 (antibody, V domains shown)
VH: EVQLVESGGGLVQPGGSLRLSCAASGFTFTSTGISWVRQAPGKGLEWVGRIYPTNGSTNYADSVKGRFTISADTSKNTAYLQMNSLRAEDTAVYYCARARTYGIYDLYVDYTEYVMDYWGQGTLV
VL: DIQMTQSPSSLSASVGDRVTITCRASQDVDTSLAWYQQKPGKAPKLLIYSASFLYSGVPSRFSGSGSGTDFTLTISSLQPEDFATYYCQQSTGHPQTFGQGTKVEIKR
Turning to B1, the Kd is 1.44 nM in assay [5] and 0.264 nM in [6]. The increased inhibitory activity in the Ba/F3-FGFR3 viability assay (fold greater than parent clone 184.6) in assay [7] was determined as 100.

B2: anti-FGFR3 antibody clone 184.6.58 (antibody, V domains shown)
VH: B1 VH
VL: B1 VL with T31I, F53S, Y55A, S91G, T92A, H94N, Q96Y
Turning to B2, the dissociation constant Kd stood at 0.88 nM in assay [5] and 0.19 nM in assay [6]. In addition, the increased inhibitory activity in the Ba/F3-FGFR3 viability assay (fold greater than parent clone 184.6) in assay [7] was 100.

B3: anti-FGFR3 antibody clone 184.6.1N54S (antibody, V domains shown)
VH: B1 VH with N55S
VL: B1 VL
For orientation: IC50 means the point on the concentration scale where inhibition reaches its midpoint. The koff is the rate constant with which the complex falls apart. The low end stands for a long-lived complex, the high end for a short-lived complex. What is called kon is a measure of how fast the partners come together. A high value points to fast association. Molecule B3 displayed an IC50 in [8] of 1.3 nM. The same molecule returned an IC50 in [9] of 1.7 nM. In assay [10], this molecule showed a Kd of 3.52 nM, a koff of 0.00032 s⁻¹ and a kon of 91000 M⁻¹ s⁻¹.

B4: anti-FGFR3 antibody clone 184.6 (antibody, V domains shown)
VH: B1 VH
VL: B1 VL with D30S, S32A, L33V, T92Y, G93T, H94T, Q96P
notes: The tie to the clone name is indirect
On to B4, for which the dissociation constant Kd in [5] was found to be 110 nM; in [6] it was 38 nM.

B5: anti-FGFR3 antibody clone 184.6.62 (antibody, V domains shown)
VH: B1 VH with T30S, S31T, T54L, N55Y, N59H
VL: B1 VL with D30S, S32A, L33V, S91T, T92Y, G93T, H94T, P95S, Q96L
Take B5: the Kd was 2.24 nM in assay [5] and 0.12 nM in assay [6]. In addition, the increased inhibitory activity in the Ba/F3-FGFR3 viability assay (fold greater than parent clone 184.6) in [7] is 100.
